Substitutions are numbered along the chain they refer to.
T1: BACE2 (Homo sapiens, UniProt Q9Y5Z0)
T1 sequence (Q9Y5Z0 63-518): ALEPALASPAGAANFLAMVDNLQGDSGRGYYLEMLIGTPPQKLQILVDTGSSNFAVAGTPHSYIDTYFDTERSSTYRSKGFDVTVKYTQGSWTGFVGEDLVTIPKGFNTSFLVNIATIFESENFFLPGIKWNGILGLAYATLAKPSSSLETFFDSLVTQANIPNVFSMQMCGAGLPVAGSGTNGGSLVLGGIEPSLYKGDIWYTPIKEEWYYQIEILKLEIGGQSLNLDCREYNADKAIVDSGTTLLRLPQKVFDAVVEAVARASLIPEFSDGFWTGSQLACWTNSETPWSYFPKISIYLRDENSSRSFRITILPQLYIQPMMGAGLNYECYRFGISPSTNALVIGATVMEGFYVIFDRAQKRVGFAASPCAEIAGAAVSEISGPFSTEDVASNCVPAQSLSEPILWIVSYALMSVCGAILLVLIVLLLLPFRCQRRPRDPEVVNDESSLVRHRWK

B1: Fab B2B2: anti-BACE-1 antibody clone; VL SEQ ID NO:44, VH SEQ ID NO:46, CDR-H3 SEQ ID NO:49 (antibody, V domains shown)
VH: EVQLVESGGGLVQPGGSLRLSCAASGFNISSYYMHWVRQAPGKGLEWVASIYSSYGYTYYADSVKGRFTISADTSKNTAYLQMNSLRAEDTAVYYCARYWGYYAWFGSHPWAYGAFDYWGQGTLVTVSSAS
VL: DIQMTQSPSSLSASVGDRVTITCRASQSVSSAVAWYQQKPGKAPKLLIYSASSLYSGVPSRFSGSRSGTDFTLTISSLQPEDFATYYCQQYGYYLITFGQGTKVEIKR
B2: Fab B2B3: anti-BACE-1 antibody clone; VL SEQ ID NO:102, VH SEQ ID NO:50, CDR-H3 SEQ ID NO:52 (antibody, V domains shown)
VH: EVQLVESGGGLVQPGGSLRLSCAASGFNISYSSIHWVRQAPGKGLEWVAYISSYSSSTYYADSVKGRFTISADTSKNTAYLQMNSLRAEDTAVYYCARSASGIDYWGQGTLVTVSSAS
VL: B1 VL with Y91S, Y94A, L95P, I96F
B3: Fab B2B9: anti-BACE-1 antibody clone; VL SEQ ID NO:96, VH SEQ ID NO:53, CDR-H3 SEQ ID NO:56 (antibody, V domains shown)
VH: EVQLVESGGGLVQPGGSLRLSCAASGFNISYSSMHWVRQAPGKGLEWVASIYPSYSYTSYADSVKGRFTISADTSKNTAYLQMNSLRAEDTAVYYCARSSSSYYYGMDYWGQGTLVTVSSAS
VL: B1 VL with Y91S, G92S, Y94S
B4: Fab B2B5: anti-BACE-1 antibody clone; VL SEQ ID NO:100, VH SEQ ID NO:41, CDR-H3 SEQ ID NO:43 (antibody, V domains shown)
VH: EVQLVESGGGLVQPGGSLRLSCAASGFNIYYSYMHWVRQAPGKGLEWVASIYPYYGSTYYADSVKGRFTISADTSKNTAYLQMNSLRAEDTAVYYCARWHGYPPGYSYYSSFSSSGFDYWGQGTLVTVSSAS
VL: DIQMTQSPSSLSASVGDRVTITCRASQSVSSAVAWYQQKPGKAPKLLIYSASSLYSGVPSRFSGSRSGTDFTPTISSLQPEDFATYYCQQSYFSYPITFGQGTKVEIKR
B5: Fab B3B12: anti-BACE-1 antibody clone; VL SEQ ID NO:25, VH SEQ ID NO:29, CDR-H3 SEQ ID NO:32 (antibody, V domains shown)
VH: EVQLVESGGGLVQPGGSLRLSCAASGFNIPYSSMHWVRQAPGKGLEWVASISSYSSSTSYADSVKGRFTISADTSKNTAYLQMNSLRAEDTAVYYCARYICGHRWRDFDMWRARTGVNYAMDYWGQGTLVTVSSAS
VL: DIQMTQSPSSLSASVGDRVTITCRASQSVGTYLNWYQQKPGKAPKLLIYATSNLRSGVPSRFSGSGSGTDFTLTISSLQPEDFATYYCQQSYSIPRFTFGPGTKLEIKR
B6: Fab B1A4: anti-BACE-1 antibody clone; VL SEQ ID NO:33, VH SEQ ID NO:37, CDR-H3 SEQ ID NO:40 (antibody, V domains shown)
VH: EVQLVESGGGLVQPGGSLRLSCAASGFNISYSSIHWVRQAPGKGLEWVAYISPSSSYTSYADSVKGRFTISADTSKNTAYLQMNSLRAEDTAVYYCARHYYVSVGSGIDYWGQGTLVTVSSAS
VL: DIQMTQSPSSLSASVGDRVTITCRASQSVSSAVAWYQQKPGKAPKLLIYSASSLYSGVPSRFSGSRSGTDFTPTISSLQPEDFATYYCQQASASPYALITFGQGTKVEIKR
B7: Fab B1B3: anti-BACE-1 antibody clone; VL SEQ ID NO:104, VH SEQ ID NO:61, CDR-H3 SEQ ID NO:64 (antibody, V domains shown)
VH: EVQLVESGGGLVQPGGSLRLSCAASGFNISYYSMHWVRQAPGKGLEWVASISPYYGSTYYADSVKGRFTISADTSKNTAYLQMNSLRAEDTAVYYCARERSSCPVGWRDSRFGADGYGLEYWGQGTLVTVSSAS
VL: DIQMTQSPSSLSASVGDRVTITCRASQSVSSAVAWYQQKPGKAPKLLIYSASSLYSGVPSRFSGSRSGTDFTLTISSLQPEDFATYYCQQSGHYHSLITFGQGTKVEIKR
B8: IgG B3B12: anti-BACE1 inhibitory Fab B3B12 converted into IgG format (antibody, V domains shown)
VH: B5 VH
VL: B5 VL
B9: Fab 1A5: anti-MMP-14 antibody clone; VL SEQ ID NO:92, VH SEQ ID NO:9, CDR-H3 SEQ ID NO:12 (antibody, V domains shown)
VH: EVQLVESGGGLVQPGGSLRLSCAASGFNLYYYYMHWVRQAPGKGLEWVAYIYPYSGSTYYADSVKGRFTISADTSKNTAYLQMNSLRAEDTAVYYCARLDFLMRDIYYDLGGGALGWLIKYAMDYWGQGTLVTVSSAS
VL: B4 VL with P73L, S91Y, Y92S, F93G, S94P
B10: Fab 2B12: anti-MMP-14 antibody clone; VL SEQ ID NO:90, VH SEQ ID NO:5, CDR-H3 SEQ ID NO:8 (antibody, V domains shown)
VH: EVQLVESGGGLVQPGGSLRLSCAASGFNIYYSSMHWVRQAPGKGLEWVAYIYSSSSYTYYADSVKGRFTISADTSKNTAYLQMNSLRAEDTAVYYCARDCCSCVFSQSAGITLACVYVMDYWGQGTLVTVSSAS
VL: B7 VL with S91W, H93P, Y94H, H95Y, S96A, L97P

The molecules below were run against T2, BACE1 (Homo sapiens, UniProt P56817) (assay: Binding kinetics by biolayer interferometry, Fabs/IgGs on BACE1). Conditions: Fab, read-out: Binding Affinity KD.
T2 construct: human β-secretase 1 (BACE1, residue 46-457); made in house; host or cells: HEK293F (secreted, protein A purified)
T2 sequence (P56817 46-457): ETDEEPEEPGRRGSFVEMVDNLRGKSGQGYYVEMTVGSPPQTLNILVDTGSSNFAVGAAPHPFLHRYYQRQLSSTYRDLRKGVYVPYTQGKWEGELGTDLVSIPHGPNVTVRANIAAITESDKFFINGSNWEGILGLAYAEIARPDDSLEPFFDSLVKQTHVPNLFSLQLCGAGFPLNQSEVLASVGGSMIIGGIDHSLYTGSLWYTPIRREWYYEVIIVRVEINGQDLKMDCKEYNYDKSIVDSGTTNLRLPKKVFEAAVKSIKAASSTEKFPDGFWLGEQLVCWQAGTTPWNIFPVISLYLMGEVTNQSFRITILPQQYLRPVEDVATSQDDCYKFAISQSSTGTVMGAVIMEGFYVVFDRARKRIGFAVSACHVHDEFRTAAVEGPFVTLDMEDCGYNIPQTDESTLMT
Procedure: Binding kinetics of produced antibodies towards associated protease targets were analyzed by using biolayer interferometry (ForteBio). For Fabs, biotinylated proteases were immobilized on streptavidin biosensors, and Fab binding to the sensors in absence of protease was monitored as backgrounds. For IgGs, protein A sensors were used and protease bindings without IgG were checked as backgrounds. kon and koff were determined for KD calculations. […] Fab in vitro stability was tested by incubating 1 μM Fab with 1 μM of the respective protease in the assay buffer for 12 hours and the samples were analyzed by SDS-PAGE.

Row | Kd [nM] | Molecule
1 | 52 | B1
2 | 100 | B2
3 | 110 | B3
4 | 130 | B4
5 | 10 | B5
6 | 21 | B6
7 | 31 | B7

Same assay, conditions: IgG format

Row | Binding Affinity KD (associated IgG, in parentheses) [nM] | Molecule
8 | 7 | B5
9 | 7 | B8
10 | 16 | B6

These molecules were tested against T2, BACE1 (assay: FRET peptide inhibition assay, BACE1 (M-2420)). Conditions: Fab; BACE-1, FRET peptide; read-out: Inhibition Potency KI.
Assay type: biochemical
Procedure: (§1) For inhibition tests, 1 μM Fabs were 2-fold serially diluted into protease specific assay buffer and incubated with 1-10 nM proteases for 30 min at room temperature. […] Inhibition percentages at given concentrations were calculated by comparing the initial reaction rates in the presence or absence of inhibitor. IC50 was determined as the concentration that achieved 50% inhibition, and KI values were calculated using KI=IC50/(S/Km+1). Vmax and Km at various Fab concentrations were measured to determine the inhibition type. FRET inhibition assays were also used for selectivity tests of isolated Fabs with the relevant proteases.

Row | Ki [nM] | Molecule
11 | 87 | B1
12 | 100 | B2
13 | 120 | B3
14 | 77 | B4
15 | 23 | B5
16 | 41 | B6
17 | 210 | B7

Same assay, conditions: IgG format; BACE-1, FRET peptide

Row | Inhibition Potency KI (associated IgG, in parentheses) [nM] | Molecule
18 | 13 | B5
19 | 13 | B8
20 | 35 | B6

What follows are molecules tested on cdMMP-9 (assay: FRET inhibition selectivity test, cdMMP-9 (Example 1)). Conditions: Fab at 500 nM.
Assay type: biochemical
Procedure: as §1

Row | Molecule | Inhibition of cdMMP-9 (selectivity)
21 | B9 | did not inhibit
22 | B10 | did not inhibit

The molecules below were run against T1, BACE2 (assay: FRET inhibition selectivity test, BACE2). Conditions: IgG.
Assay type: biochemical
Procedure: as §1

Row | Inhibition of BACE2 (selectivity) | Molecule
23 | but not BACE2 | B8

Each molecule was assayed against T3, cdMMP-12 mutant D4 (Homo sapiens, UniProt P39900, A167E/A173P/A252Q/H206S/I245T/K233R/M156E/N119Q/N126H/R135E/T215V/V161I/Y113D/Y132K) (assay: Bio-layer interferometry (BLItz) on cdMMP-12 D4). Conditions: read-out: Affinity on cdMMP-12 D4.
T3 construct: hexahistidine (C); made in house; host or cells: E. coli BL21, pET32b (cytoplasmic, soluble fraction)
Assay type: binding
Procedure: ELISA and binding kinetics measurement Purified cdMMP-9, cdMMP-12 D4/wt, and cdMMP-14 were biotinylated by using EZ-Link Sulfo-NHS-LC kit (Thermo Fisher). On streptavidin coated ELISA plates, 5 μg/mL biotinylated cdMMPs were immobilized and incubated with two-fold serially diluted purified Fabs. Bound Fabs were detected with anti-Fab-HRP (Sigma-Aldrich), and signals were developed by TMB substrate (Thermo Scientific) and measured using a microplate reader (BioTek). In competitive ELISA, 500 nM Fabs of interest were mixed with 0.01-10 μM GM6001 or 0.8-200 μM nTIMP-2 for 30 min, then transferred to ELISA plates coated with cdMMP-12 D4/wt for incubation 15 min at room temperature. Bound Fabs were detected using anti-Fab-HRP. For bio-layer interferometry (using ForteBio BLItz), biotinylated cdMMP-12 D4/wt was loaded onto streptavidin biosensors. After washing to establish baselines, 50, 100, or 200 nM of Fabs were associated with immobilized cdMMP-12 D4/wt for 200 sec, then dissociated into 50 mM HEPES, 150 mM NaCl pH 7.5 for 120 sec. Averages of measured kon and koff values were determined for KD calculations.

T3 sequence (P39900 106-263 Y113D/N119Q/N126H/Y132K/R135E/M156E/V161I/A167E/A173P/H206S/T215V/K233R/I245T/A252Q): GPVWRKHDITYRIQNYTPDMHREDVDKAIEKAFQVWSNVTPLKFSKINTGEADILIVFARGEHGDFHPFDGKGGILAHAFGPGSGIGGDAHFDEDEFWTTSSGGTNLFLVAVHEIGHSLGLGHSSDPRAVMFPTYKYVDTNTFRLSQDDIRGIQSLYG

Row | Kd [nM] | Molecule
24 | 500 | nTIMP-1: N-terminal domain of tissue inhibitor of metalloproteinases 1, endogenous inhibitor of MMPs
25 | 290 | nTIMP-2: N-terminal domain of tissue inhibitor of metalloproteinases 2, endogenous inhibitor of MMPs

Each molecule was assayed against T4, cdMMP-12 wt (Homo sapiens, UniProt P39900) (assay: Fibronectin proteolysis inhibition, cdMMP-12 wt (western blot)). Conditions: 2 μM GM6001; 350 nM wt cdMMP-12, 200 nM fibronectin, 37° C.
T4 construct: hexahistidine (C); made in house; host or cells: E. coli BL21 (pET32b, cytoplasmic)
Assay type: biochemical
Procedure: Inhibition tests with macromolecular substrates 10 μg/mL FITC-conjugated elastin (AnaSpec) was incubated with 7 nM cdMMP-12 D4/wt and 2-2000 nM purified Fab in 50 mM Tris-HCl, 150 mM NaCl, 5 mM CaCl2), 100 μM ZnCl2 pH 7.5. Generated fluorescent signals were measured at 12 h with λEx of 490 nm and λEm of 520 nm. […] The samples were separated on 5% non-reducing SDS-PAGE and analyzed by western blotting with anti-Fibronectin antibody (Abcam) and chemiluminescent substrate (Thermo Scientific). […] Assays without cdMMP-12s or Fabs were performed as controls.

T4 sequence (P39900 106-263): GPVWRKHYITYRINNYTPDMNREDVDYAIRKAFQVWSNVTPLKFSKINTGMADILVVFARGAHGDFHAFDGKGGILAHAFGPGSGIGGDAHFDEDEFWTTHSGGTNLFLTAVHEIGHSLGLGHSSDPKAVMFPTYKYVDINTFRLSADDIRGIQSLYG

Row | Molecule | Fibronectin remaining after cdMMP-12 wt hydrolysis
26 | CNC(=O)[C@H](Cc1c[nH]c2ccccc12)NC(=O)[C@@H](CC(=O)NO)CC(C)C [GM6001, reference compound] | significant amounts of fibronectin remained
